Legend:
Experiment in all cases: PDC activity by ADH-coupled assay, kinetic parameters for pyruvate
[1] = substrate: CC(=O)C(=O)O; assay type: biochemical, Acetobacter pasteurianus; conditions: other: ApaPDC
From the text: (ii) Purification of A. pasteurianus PDC—PDC was purified from A. pasteurianus and E. coli ER1648(pJAM304) using heat-treatment, Q-Sepharose, Superdex 200, and hydroxyapatite as described for the Z. palmae PDC with the following modifications. Cells were passed through a French pressure cell at 30,000 lb per in^2. The PDC activity, which was eluted at 0.17 to 0.26 M NaCl from the Q-Sepharose column, was pooled and concentrated by dialysis against PEG8000 prior to loading onto the Superdex 200 column.
(§1) PDC Quantitation and Enzyme Activity Assay—Polypeptide concentration was determined using Bradford reagent with bovine serum albumin as the standard (BioRad). PDC activity was measured by the coupled assay with baker's yeast alcohol dehydrogenase (ADH) (Sigma-Aldrich, St. Louis, Mo.) as previously described (11). The reaction mixture contained 0.15 mM NADH, 5 mM MgCl2, 0.1 mM TPP, 5 mM pyruvate, and 10 U ADH in 50 mM sodium citrate buffer at pH 5.0 and was measured at 25° C. unless otherwise indicated. One unit of enzyme activity is defined as the amount of enzyme that generates 1 μmol of acetaldehyde per min.
(§2) As a further comparison, the kinetic constants of all four bacterial PDC polypeptides were determined at their pH optimum as well as at pH 7.0 (Table 3). […]

[2] = substrate: CC(=O)C(=O)O; assay type: biochemical, Zymomonas mobilis; conditions: other: ZmoPDC
Procedure: All procedures were performed at room temperature and all purification buffers contained 1 mM TPP and 1 mM MgCl2 unless otherwise indicated. S. ventriculi PDC was purified from recombinant E. coli BL21-CodonPlus-RIL(pJAM419) and Rosetta (DE3)(pRARE, pJAM419) as previously described (45). Z. mobilis PDC was purified from recombinant E. coli DH5α (pLOI276) (11) using thermal treatment, Q-Sepharose, and Superdex 200 procedures as described below for the Z. palmae PDC with the exception that the Z. mobilis PDC was eluted from Q-Sepharose at 0.22 to 0.32 M NaCl.
as §1, §2

[3] = substrate: CC(=O)C(=O)O; assay type: biochemical, Zymobacter palmae; conditions: other: ZpaPDC
Procedure: (i) Purification of Z. palmae PDC—Z. palmae and E. coli DH5α (pJAM3440) cells were grown to stationary phase and harvested by centrifugation at 10,000×g (10 min, 4° C.). Cells (12 to 15 g wet wt) were resuspended in 6 volumes of 50 mM sodium phosphate buffer at pH 6.5 containing 1 mM TPP and 1 mM MgCl2 (buffer A) and passed through a chilled French pressure cell at 20,000 lb per in^2. Cell debris was removed by centrifugation at 16,000×g (20 min, 4° C.). Cell lysate was heated to 60° C. for 30 min, chilled on ice for 15 min, and centrifuged at 16,000×g (30 min at 4° C.) to remove denatured polypeptides. […]
as §1, with “One unit of enzyme activity is defined as the amount of enzyme that generates 1 μmol of acetaldehyde per min.” left out
as §2

[4] = pH 7.0, normal Michaelis-Menten kinetics, pH 7.0, 25.0 °C

B1: Acetobacter pasteurianus pyruvate decarboxylase (ApaPDC), recombinant, wild type, SEQ ID NO:4 (Acetobacter pasteurianus) (protein)
chain: MTYTVGMYLAERLVQIGLKHHFAVGGDYNLVLLDQLLLNKDMKQIYCCNELNCGFSAEGYARSNGAAAAVVTFSVGAISAMNALGGAYAENLPVILISGAPNSNDQGTGHILHHTIGKTDYSYQLEMARQVTCAAESITDAHSAPAKIDHVIRTALRERKPAYLDIACNIASEPCVRPGPVSSLLSEPEIDHTSLKAAVDATVALLKNRPAPVMLLGSKLRAANALAATETLADKLQCAVTIMAAAKGFFPEDHAGFRGLYWGEVSNPGVQELVETSDALLCIAPVFNDYSTVGWSGMPKGPNVILAEPDRVTVDGRAYDGFTLRAFLQALAEKAPARPASAQKSSVPTCSLTATSDEAGLTNDEIVRHINALLTSNTTLVAETGDSWFNAMRMTLAGARVELEMQWGHIGWSVPSAFGNAMGSQDRQHVVMVGDGSFQLTAQEVAQMVRYELPVIIFLINNRGYVIEIAIHDGPYNYIKNWDYAGLMEVFNAGEGHGLGLKATTPKELTEAIARAKANTRGPTLIECQIDRTDCTDMLVQWGRKVASTNARKTTLA
notes: coupled test with yeast ADH
[1]; pH 5.0, 25° C., normal Michaelis-Menten kinetics, pH 5.0
  Km: 390 µM
[1]; [4]
  Km: 5100 µM

B2: Zymomonas mobilis pyruvate decarboxylase (ZmoPDC), recombinant, wild type, SEQ ID NO:8 (Zymomonas mobilis subsp. mobilis ZM4 = ATCC 31821) (protein)
chain: MSYTVGTYLAERLVQIGLKHHFAVAGDYNLVLLDNLLLNKNMEQVYCCNELNCGFSAEGYARAKGAAAAVVTYSVGALSAFDAIGGAYAENLPVILISGAPNNNDHAAGHVLHHALGKTDYHYQLEMAKNITAAAEAIYTPEEAPAKIDHVIKTALREKKPVYLEIACNIASMPCAAPGPASALFNDEASDEASLNAAVEETLKFIANRDKVAVLVGSKLRAAGAEEAAVKFADALGGAVATMAAAKSFFPEENPHYIGTSWGEVSYPGVEKTMKEADAVIALAPVFNDYSTTGWTDIPDPKKLVLAEPRSVVVNGVRFPSVHLKDYLTRLAQKVSKKTGALDFFKSLNAGELKKAAPADPSAPLVNAEIARQVEALLTPNTTVIAETGDSWFNAQRMKLPNGARVEYEMQWGHIGWSVPAAFGYAVGAPERRNILMVGDGSFQLTAQEVAQMVRLKLPVIIFLINNYGYTIEVMIHDGPYNNIKNWDYAGLMEVFNGNGGYDSGAGKGLKAKTGGELAEAIKVALANTDGPTLIECFIGREDCTEELVKWGKRVAAANSRKPVNKLL
notes: coupled test with yeast ADH
[2]; pH 6.0, normal Michaelis-Menten kinetics, pH 6.0, 25.0 °C
  Km: 430 µM
[2]; [4]
  Km: 940 µM

B3: Zymobacter palmae pyruvate decarboxylase (ZpaPDC), recombinant, wild type, SEQ ID NO:2 (Zymobacter palmae) (protein)
chain: MYTVGMYLAERLAQIGLKHHFAVAGDYNLVLLDQLLLNKDMEQVYCCNELNCGFSAEGYARARGAAAAIVTFSVGAISAMNAIGGAYAENLPVILISGSPNTNDYGTGHILHHTIGTTDYNYQLEMVKHVTCARESIVSAEEAPAKIDHVIRTALRERKPAYLEIACNVAGAECVRPGPINSLLRELEVDQTSVTAAVDAAVEWLQDRQNVVMLVGSKLRAAAAEKQAVALADRLGCAVTIMAAEKGFFPEDHPNFRGLYWGEVSSEGAQELVENADAILCLAPVFNDYATVGWNSWPKGDNVMVMDTDRVTFAGQSFEGLSLSTFAAALAEKAPSRPATTQGTQAPVLGIEAAEPNAPLTNDEMTRQIQSLITSDTTLTAETGDSWFNASRMPIPGGARVELEMQWGHIGWSVPSAFGNAVGSPERRHIMMVGDGSFQLTAQEVAQMIRYEIPVIIFLINNRGYVIEIAIHDGPYNYIKNWNYAGLIDVFNDEDGHGLGLKASTGAELEGAIKKALDNRRGPTLIECNIAQDDCTETLIAWGKRVAATNSRKPQA
notes: coupled test with yeast ADH
[3]; pH 6.0, 25° C., normal Michaelis-Menten kinetics, pH 6.0, 25.0 °C
  Km: 240 µM
[3]; pH 7.0, normal Michaelis-Menten kinetics, pH 7.0
  Km: 710 µM

— patent publication US7326551B2, “Cloning and sequencing of pyruvate decarboxylase (PDC) genes from bacteria and uses therefor” (University of Florida Research Foundation, Inc., priority 2001, dated 2008)
